Assays:
[1] = target: T1, Thermus thermophilus BHBDh (TtBHBDh), wild type, SEQ ID NO: 3 (Thermus thermophilus, UniProt Q5SKF0); experiment: BHB concentration-dependent BHBDh activity of TtBHBDh (NADH detection, absorbance at 340 nm); assay type: biochemical; conditions: 1 mM NAD+, 10 mM HEPES pH 7.8, 0 mM MgCl2, 0-50 mM BHB, room temperature; read-out: Km toward BHB
T1 sequence (Q5SKF0 1-251): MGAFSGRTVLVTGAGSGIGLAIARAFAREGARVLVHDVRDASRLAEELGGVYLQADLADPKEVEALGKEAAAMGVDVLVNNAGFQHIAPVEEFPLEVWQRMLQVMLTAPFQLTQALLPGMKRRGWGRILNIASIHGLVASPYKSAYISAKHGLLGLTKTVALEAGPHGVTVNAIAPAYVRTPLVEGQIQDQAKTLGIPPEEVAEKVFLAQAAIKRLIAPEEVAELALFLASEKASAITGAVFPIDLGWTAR
Protocol: The activity was measured using NADH detection via absorbance at 340 nm, at room temperature. The measurement was done in a solution with 1 mM NAD^+, 10 mM HEPES at pH 7.8, and 0 mM MgCl2·6 H2O, from 0-50 mM BHB.

[2] = substrate: C[C@@H](O)CC(=O)O; experiment: NAD dependent BHB dehydrogenase activity of AfBHBDh; assay type: biochemical, Alcaligenes faecalis

Km [1] [µM] | Molecule | Km [2] [µM] | Vmax [2] [µmol/min/mg]
359 | C[C@@H](O)CC(=O)O [BHB, R-3-hydroxybutyrate] | – | –
– | (Alcaligenes faecalis) (protein) MLKGKKAVVTGSTSGIGLAMATELAKAGADVVINGFGQPEDIERERSTLESKFGVKAYYLNADLSDAQATRDFIAKAAEALGGLDILVNNAGIQHTAPIEEFPVDKWNAIIALNLSAVFHGTAAALPIMQKQGWGRIINIASAHGLVASVNKSAYVAAKHGVVGLTKVTALENAGKGITCNAICPGWVRTPLVEKQIEAISQQKGIDIEAAARELLAEKQPSLQFVTPEQLGGAAVFLSSAAADQMTGTTLSLDGGWTAR | 1130 | 223
